In this assay the target is TGFβ1 (UniProt P01137). In words: cell-based or functional assay.

From patent US20160075755A1 come the findings set out here.

Sequence of DNRII (truncated, dominant-negative TGFβ receptor II) (P37173 23-199): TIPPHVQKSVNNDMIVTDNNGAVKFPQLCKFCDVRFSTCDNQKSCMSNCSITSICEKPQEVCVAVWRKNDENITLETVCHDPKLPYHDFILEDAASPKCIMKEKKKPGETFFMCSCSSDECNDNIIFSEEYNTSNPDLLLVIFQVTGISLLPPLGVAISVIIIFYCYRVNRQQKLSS
Sequence of TGFβ1 (P01137 279-390 limits assumed): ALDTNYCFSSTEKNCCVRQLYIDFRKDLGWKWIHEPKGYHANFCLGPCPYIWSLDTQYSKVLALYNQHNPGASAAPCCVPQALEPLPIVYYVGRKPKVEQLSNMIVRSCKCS

Regarding “DNRII (truncated, dominant-negative TGFβ receptor II) (from UniProt P37173 23-199)”, the T cell expansion after 30 days in culture in the presence of TGFβ1 was 0.72 fold; the Total Flux of firefly-luciferase-Du145 cells (express PSCA, produce TGFβ1) after 6 days of co-culture came out at 1e+10 p/s; the fold expansion of 2G.CAR-PSCA(DNRII) T cells at 2 weeks of culture in the presence of TGFβ1 was 7.4 fold.

Consider “RIID4 (chimeric cytokine receptor: exodomain of TGFβRII linked to the endodomain of toll-like receptor (TLR) 4) (from UniProt P37173 23-166; O00206 632-839)”, for which the T cell expansion for >60 days in the presence of TGFβ1 is 300000 fold; the Total Flux of firefly-luciferase-Du145 cells (express PSCA, produce TGFβ1) after 6 days of co-culture came to 9e+09 p/s; the fold expansion of 2G.CAR-PSCA(RIID4) T cells at 2 weeks of culture in the presence of TGFβ1 came to 21 fold; the transgenic T cell proliferation with TGFβ1 alone (no antigen) was determined as 0.04 fold.
